Laboratory results taken from patent publication EP4772193A1 (Teijin Pharma Limited, dated 2026).
Numbering of substitutions follows the chain as printed. Names may count otherwise.

B1: hGPN06-1_H1L1 VH D110A (antibody, V domains shown)
VH: QVQLVQSGAEVKKPGASVKVSCKASGYTFTDNWMGWVKQRPGQGLEWIGAIDPSDSFTNYNQNFKGRVTMTVDTSISTAYMELSRLRSDDSAVYFCTRSGYYGSPKLGGAYWGQGTLVTVSS
VL: EIVLTQSPSSLSASVGDRVTITCSASSSISYMHWYQQKSGTAPKLLIYSTSNLASGVPSRFSGSGSGTDFTFTISSLQPEDAATYYCHQWNSYPCTFGGGTKLEIK
B2: hGPN06-1_H1L1 VH L107A (antibody, V domains shown)
VH: B1 VH with L107A, A110D
VL: B1 VL
B3: hGPN06-1_H1L1 VH T97A (antibody, V domains shown)
VH: B1 VH with T97A, A110D
VL: B1 VL
B4: hGPN06-1_H1L1 VH G100A (antibody, V domains shown)
VH: B1 VH with G100A, A110D
VL: B1 VL
B5: hGPN06-1_H1L1 VH R98A (antibody, V domains shown)
VH: B1 VH with R98A, A110D
VL: B1 VL
B6: hGPN06-1_H1L1 VH Y101A (antibody, V domains shown)
VH: B1 VH with Y101A, A110D
VL: B1 VL
B7: hGPN06-1_H1L1 VH G103A (antibody, V domains shown)
VH: B1 VH with G103A, A110D
VL: B1 VL
B8: hGPN06-1_H1L1 VH S104A (antibody, V domains shown)
VH: B1 VH with S104A, A110D
VL: B1 VL
B9: hGPN06-1_H1L1 VH G108A (antibody, V domains shown)
VH: B1 VH with G108A, A110D
VL: B1 VL
B10: hGPN06-1_H1L1 VH Y102A (antibody, V domains shown)
VH: B1 VH with Y102A, A110D
VL: B1 VL
B11: hGPN06-1_H1L1 VH G109A (antibody, V domains shown)
VH: B1 VH with G109A, A110D
VL: B1 VL
B12: hGPN06-1_H1L1 VH Y111A (antibody, V domains shown)
VH: B1 VH with A110D, Y111A
VL: B1 VL
B13: hGPN06-1_H1L1 VH P105A (antibody, V domains shown)
VH: B1 VH with P105A, A110D
VL: B1 VL
B14: hGPN06-1_H1L1 VH S99A (antibody, V domains shown)
VH: B1 VH with S99A, A110D
VL: B1 VL
B15: hGPN06-1_H1L1 VH K106A (antibody, V domains shown)
VH: B1 VH with K106A, A110D
VL: B1 VL
B16: hGPN18-2_H2L3 VH Y102A (antibody, V domains shown)
VH: QVQLVQSGPGLVQPTQTLTLTCSFSGFSLSTSVMGVGWIRQPSGKGLEWLADIWWDDDKDYNPSLKSRLTISKDTSKNQVVLTMTNMDTVDTATYYCARTYASNYEYYGMDYWGQGTLVTVSS
VL: DIVMTQSPDSLAVSLGERATINCRSSQTIILSNGNTYLEWYQQKPGQPPKLLIYKVSNRFSGVPDRFSGSGSGTDFTLTISSLQAEDVAVYYCFQGSHVPFTFGSGTKLEIKR
B17: hGPN18-2_H2L3 VH Y112A (antibody, V domains shown)
VH: B16 VH with A102Y, Y112A
VL: B16 VL
B18: hGPN18-2_H2L3 VH Y108A (antibody, V domains shown)
VH: B16 VH with A102Y, Y108A
VL: B16 VL
B19: hGPN18-2_H2L3 VH Y105A (antibody, V domains shown)
VH: B16 VH with A102Y, Y105A
VL: B16 VL
B20: hGPN18-2_H2L3 VH Y107A (antibody, V domains shown)
VH: B16 VH with A102Y, Y107A
VL: B16 VL

Target: T1, recombinant human soluble gpNMB (recombinant human gpNMB-FLAG-His) (human, UniProt Q14956 23-498)
T1 sequence: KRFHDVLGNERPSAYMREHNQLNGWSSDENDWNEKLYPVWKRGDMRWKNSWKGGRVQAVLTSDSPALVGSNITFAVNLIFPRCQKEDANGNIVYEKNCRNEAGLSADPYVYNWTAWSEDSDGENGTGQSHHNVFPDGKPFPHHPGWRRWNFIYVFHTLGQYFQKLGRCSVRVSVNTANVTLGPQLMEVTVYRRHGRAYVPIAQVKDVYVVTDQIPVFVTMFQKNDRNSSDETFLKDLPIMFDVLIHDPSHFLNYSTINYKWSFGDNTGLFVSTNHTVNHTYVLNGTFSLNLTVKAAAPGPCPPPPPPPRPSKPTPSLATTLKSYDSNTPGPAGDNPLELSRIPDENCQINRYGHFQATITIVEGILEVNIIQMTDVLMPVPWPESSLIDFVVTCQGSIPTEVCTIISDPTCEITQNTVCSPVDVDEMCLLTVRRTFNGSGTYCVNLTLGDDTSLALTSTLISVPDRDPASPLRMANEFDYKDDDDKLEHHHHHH
Experiment: antigen ELISA

Binder | EC50 [nM]
B1 | 0.956
B2 | 1.05
B3 | 0.36
B4 | 65.8
B5 | 53.2
B6 | 0.502
B7 | 0.762
B8 | 0.712
B9 | 0.476
B10 | 2.21
B11 | 4.89
B12 | 0.584
B13 | 1.18
B14 | 0.587
B15 | 0.441

Target: T1, recombinant human soluble gpNMB …
Experiment: antigen ELISA, vs hGPN18-2_H2L3

Binder | Relative binding activity
B16 | 0.07
B17 | 1.05
B18 | 0.91
B19 | 0.47
B20 | 0.06

Target: T1, recombinant human soluble gpNMB …
Experiment: antigen ELISA, vs hGPN06-1_H1L1

Binder | Relative binding activity
B1 | 0.79
B2 | 0.71
B3 | 0.98
B4 | 0.06
B5 | 0.05
B6 | 1.04
B7 | 1.14
B8 | 0.88
B9 | 0.96
B10 | 0.68
B11 | 0.34
B12 | 0.99
B13 | 1.09
B14 | 0.92
B15 | 1

Target: T1, recombinant human soluble gpNMB …
Experiment: antigen ELISA
Remark: another data set of the same source

Binder | EC50 [nM]
B16 | 49.1
B17 | 3.73
B18 | 4.7
B19 | 15.6
B20 | 60.9
